B1: G426H: modified GLD: SEQ ID NO: 1 with substitution G426H (protein, listed as Aspergillus terreus)
chain: MLGKLSFLSALSLAVAAPLSNSTSAKYDYIVIGGGTSGLAVANRLSEDPNVNVLILEAGGSVWNNPNVTNVDGYGLAFGSDIDWQYQSVNQPYGGNLSQVLRAGKALGGTSTINGMAYTRAEDVQIDAWETIGNTGWTWKNLFPYYRKSENFTVPTKSQTSLGASYEAGAHGHEGPLDVAFTQIESNNLTTYLNRTFQGMGLPWTEDVNGGKMRGFNLYPSTVNLEEYVREDAARAYYWPYKSRPNLHVLLNTFANRIVWDGEAHDGHITASGVEITSRNGTVRVINAEKEVIVSAGALKSPAILELSGIGNPSVLDKHNIPVKVNLPTVGENLQDQVNSHMDASGNTSISGTKAVSYPDVYDVFGDEAESVAKQIRANLKQYAADTAKANGNIMKAADLERLFEVQYDLIFKGRVPIAEVLNYPHSATSVFAEFWALLPFARGSVHIGSSNPAEFPVINPNYFMLDWDAKSYVAVAKYIRRSFESYPLSSIVKESTPGYDVIPRNASEQSWKEWVFDKNYRSNFHPVGTAAMMPREIGGVVDERLNVYGTTNVRVVDASVLPFQVCGHLVSTLYAVAERAADLIKADAGRR
modifications: SIGNAL (1)..(19)
B2: G426K: modified GLD: SEQ ID NO: 1 with substitution G426K (protein, listed as Aspergillus terreus)
chain: MLGKLSFLSALSLAVAAPLSNSTSAKYDYIVIGGGTSGLAVANRLSEDPNVNVLILEAGGSVWNNPNVTNVDGYGLAFGSDIDWQYQSVNQPYGGNLSQVLRAGKALGGTSTINGMAYTRAEDVQIDAWETIGNTGWTWKNLFPYYRKSENFTVPTKSQTSLGASYEAGAHGHEGPLDVAFTQIESNNLTTYLNRTFQGMGLPWTEDVNGGKMRGFNLYPSTVNLEEYVREDAARAYYWPYKSRPNLHVLLNTFANRIVWDGEAHDGHITASGVEITSRNGTVRVINAEKEVIVSAGALKSPAILELSGIGNPSVLDKHNIPVKVNLPTVGENLQDQVNSHMDASGNTSISGTKAVSYPDVYDVFGDEAESVAKQIRANLKQYAADTAKANGNIMKAADLERLFEVQYDLIFKGRVPIAEVLNYPKSATSVFAEFWALLPFARGSVHIGSSNPAEFPVINPNYFMLDWDAKSYVAVAKYIRRSFESYPLSSIVKESTPGYDVIPRNASEQSWKEWVFDKNYRSNFHPVGTAAMMPREIGGVVDERLNVYGTTNVRVVDASVLPFQVCGHLVSTLYAVAERAADLIKADAGRR
modifications: SIGNAL (1)..(19)
B3: G426M: modified GLD: SEQ ID NO: 1 with substitution G426M (protein, listed as Aspergillus terreus)
chain: MLGKLSFLSALSLAVAAPLSNSTSAKYDYIVIGGGTSGLAVANRLSEDPNVNVLILEAGGSVWNNPNVTNVDGYGLAFGSDIDWQYQSVNQPYGGNLSQVLRAGKALGGTSTINGMAYTRAEDVQIDAWETIGNTGWTWKNLFPYYRKSENFTVPTKSQTSLGASYEAGAHGHEGPLDVAFTQIESNNLTTYLNRTFQGMGLPWTEDVNGGKMRGFNLYPSTVNLEEYVREDAARAYYWPYKSRPNLHVLLNTFANRIVWDGEAHDGHITASGVEITSRNGTVRVINAEKEVIVSAGALKSPAILELSGIGNPSVLDKHNIPVKVNLPTVGENLQDQVNSHMDASGNTSISGTKAVSYPDVYDVFGDEAESVAKQIRANLKQYAADTAKANGNIMKAADLERLFEVQYDLIFKGRVPIAEVLNYPMSATSVFAEFWALLPFARGSVHIGSSNPAEFPVINPNYFMLDWDAKSYVAVAKYIRRSFESYPLSSIVKESTPGYDVIPRNASEQSWKEWVFDKNYRSNFHPVGTAAMMPREIGGVVDERLNVYGTTNVRVVDASVLPFQVCGHLVSTLYAVAERAADLIKADAGRR
modifications: SIGNAL (1)..(19)
B4: G426N: modified GLD: SEQ ID NO: 1 with substitution G426N (protein, listed as Aspergillus terreus)
chain: MLGKLSFLSALSLAVAAPLSNSTSAKYDYIVIGGGTSGLAVANRLSEDPNVNVLILEAGGSVWNNPNVTNVDGYGLAFGSDIDWQYQSVNQPYGGNLSQVLRAGKALGGTSTINGMAYTRAEDVQIDAWETIGNTGWTWKNLFPYYRKSENFTVPTKSQTSLGASYEAGAHGHEGPLDVAFTQIESNNLTTYLNRTFQGMGLPWTEDVNGGKMRGFNLYPSTVNLEEYVREDAARAYYWPYKSRPNLHVLLNTFANRIVWDGEAHDGHITASGVEITSRNGTVRVINAEKEVIVSAGALKSPAILELSGIGNPSVLDKHNIPVKVNLPTVGENLQDQVNSHMDASGNTSISGTKAVSYPDVYDVFGDEAESVAKQIRANLKQYAADTAKANGNIMKAADLERLFEVQYDLIFKGRVPIAEVLNYPNSATSVFAEFWALLPFARGSVHIGSSNPAEFPVINPNYFMLDWDAKSYVAVAKYIRRSFESYPLSSIVKESTPGYDVIPRNASEQSWKEWVFDKNYRSNFHPVGTAAMMPREIGGVVDERLNVYGTTNVRVVDASVLPFQVCGHLVSTLYAVAERAADLIKADAGRR
modifications: SIGNAL (1)..(19)
B5: G426R: modified GLD: SEQ ID NO: 1 with substitution G426R (protein, listed as Aspergillus terreus)
chain: MLGKLSFLSALSLAVAAPLSNSTSAKYDYIVIGGGTSGLAVANRLSEDPNVNVLILEAGGSVWNNPNVTNVDGYGLAFGSDIDWQYQSVNQPYGGNLSQVLRAGKALGGTSTINGMAYTRAEDVQIDAWETIGNTGWTWKNLFPYYRKSENFTVPTKSQTSLGASYEAGAHGHEGPLDVAFTQIESNNLTTYLNRTFQGMGLPWTEDVNGGKMRGFNLYPSTVNLEEYVREDAARAYYWPYKSRPNLHVLLNTFANRIVWDGEAHDGHITASGVEITSRNGTVRVINAEKEVIVSAGALKSPAILELSGIGNPSVLDKHNIPVKVNLPTVGENLQDQVNSHMDASGNTSISGTKAVSYPDVYDVFGDEAESVAKQIRANLKQYAADTAKANGNIMKAADLERLFEVQYDLIFKGRVPIAEVLNYPRSATSVFAEFWALLPFARGSVHIGSSNPAEFPVINPNYFMLDWDAKSYVAVAKYIRRSFESYPLSSIVKESTPGYDVIPRNASEQSWKEWVFDKNYRSNFHPVGTAAMMPREIGGVVDERLNVYGTTNVRVVDASVLPFQVCGHLVSTLYAVAERAADLIKADAGRR
modifications: SIGNAL (1)..(19)
B6: G426I: modified GLD: SEQ ID NO: 1 with substitution G426I (protein, listed as Aspergillus terreus)
chain: MLGKLSFLSALSLAVAAPLSNSTSAKYDYIVIGGGTSGLAVANRLSEDPNVNVLILEAGGSVWNNPNVTNVDGYGLAFGSDIDWQYQSVNQPYGGNLSQVLRAGKALGGTSTINGMAYTRAEDVQIDAWETIGNTGWTWKNLFPYYRKSENFTVPTKSQTSLGASYEAGAHGHEGPLDVAFTQIESNNLTTYLNRTFQGMGLPWTEDVNGGKMRGFNLYPSTVNLEEYVREDAARAYYWPYKSRPNLHVLLNTFANRIVWDGEAHDGHITASGVEITSRNGTVRVINAEKEVIVSAGALKSPAILELSGIGNPSVLDKHNIPVKVNLPTVGENLQDQVNSHMDASGNTSISGTKAVSYPDVYDVFGDEAESVAKQIRANLKQYAADTAKANGNIMKAADLERLFEVQYDLIFKGRVPIAEVLNYPISATSVFAEFWALLPFARGSVHIGSSNPAEFPVINPNYFMLDWDAKSYVAVAKYIRRSFESYPLSSIVKESTPGYDVIPRNASEQSWKEWVFDKNYRSNFHPVGTAAMMPREIGGVVDERLNVYGTTNVRVVDASVLPFQVCGHLVSTLYAVAERAADLIKADAGRR
modifications: SIGNAL (1)..(19)
B7: G426L: modified GLD: SEQ ID NO: 1 with substitution G426L (protein, listed as Aspergillus terreus)
chain: MLGKLSFLSALSLAVAAPLSNSTSAKYDYIVIGGGTSGLAVANRLSEDPNVNVLILEAGGSVWNNPNVTNVDGYGLAFGSDIDWQYQSVNQPYGGNLSQVLRAGKALGGTSTINGMAYTRAEDVQIDAWETIGNTGWTWKNLFPYYRKSENFTVPTKSQTSLGASYEAGAHGHEGPLDVAFTQIESNNLTTYLNRTFQGMGLPWTEDVNGGKMRGFNLYPSTVNLEEYVREDAARAYYWPYKSRPNLHVLLNTFANRIVWDGEAHDGHITASGVEITSRNGTVRVINAEKEVIVSAGALKSPAILELSGIGNPSVLDKHNIPVKVNLPTVGENLQDQVNSHMDASGNTSISGTKAVSYPDVYDVFGDEAESVAKQIRANLKQYAADTAKANGNIMKAADLERLFEVQYDLIFKGRVPIAEVLNYPLSATSVFAEFWALLPFARGSVHIGSSNPAEFPVINPNYFMLDWDAKSYVAVAKYIRRSFESYPLSSIVKESTPGYDVIPRNASEQSWKEWVFDKNYRSNFHPVGTAAMMPREIGGVVDERLNVYGTTNVRVVDASVLPFQVCGHLVSTLYAVAERAADLIKADAGRR
modifications: SIGNAL (1)..(19)
B8: G426P: modified GLD: SEQ ID NO: 1 with substitution G426P (protein, listed as Aspergillus terreus)
chain: MLGKLSFLSALSLAVAAPLSNSTSAKYDYIVIGGGTSGLAVANRLSEDPNVNVLILEAGGSVWNNPNVTNVDGYGLAFGSDIDWQYQSVNQPYGGNLSQVLRAGKALGGTSTINGMAYTRAEDVQIDAWETIGNTGWTWKNLFPYYRKSENFTVPTKSQTSLGASYEAGAHGHEGPLDVAFTQIESNNLTTYLNRTFQGMGLPWTEDVNGGKMRGFNLYPSTVNLEEYVREDAARAYYWPYKSRPNLHVLLNTFANRIVWDGEAHDGHITASGVEITSRNGTVRVINAEKEVIVSAGALKSPAILELSGIGNPSVLDKHNIPVKVNLPTVGENLQDQVNSHMDASGNTSISGTKAVSYPDVYDVFGDEAESVAKQIRANLKQYAADTAKANGNIMKAADLERLFEVQYDLIFKGRVPIAEVLNYPPSATSVFAEFWALLPFARGSVHIGSSNPAEFPVINPNYFMLDWDAKSYVAVAKYIRRSFESYPLSSIVKESTPGYDVIPRNASEQSWKEWVFDKNYRSNFHPVGTAAMMPREIGGVVDERLNVYGTTNVRVVDASVLPFQVCGHLVSTLYAVAERAADLIKADAGRR
modifications: SIGNAL (1)..(19)

Columns and labels:
[1] = Relative enzymatic activity of GLD (DCIP/1-m-PMS, plate reader, yeast culture supernatant) with 1,10-phenanthroline present; assay type: biochemical; settings: site-specific mutants, inhibitor final concentration 1 mM
Outline: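 Inhibitor at 1 mM final substitutes for the methanol in the reagent, and the sample rate is expressed as % of the inhibitor-free blank. Rates come from ΔA600/min of DCIP with glucose and 1-m-PMS at pH 7.0, using supernatants of YPD-grown yeast clones (24 h, 30° C.).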

[2] = Relative enzymatic activity of GLD (DCIP/1-m-PMS, plate reader, yeast culture supernatant) with proflavin hydrochloride present; assay type: biochemical; settings: site-specific mutants, inhibitor final concentration 1 mM
Outline: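 Culture supernatant diluted and mixed with reagent of phosphate buffer pH 7.0, 1.0 M D-glucose, 3 mM DCIP, 3 mM 1-m-PMS and methanol (0.1:1:0.14:0.2:0.06). DCIP absorbance decrease at 600 nm followed; proflavin hydrochloride in methanol replaced methanol at 1 mM final. Activity expressed as % of inhibitor-free blank.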

Molecule	Relative Activity [%] 1,10-Phenanthroline [1] [%]	Relative Activity [%] Proflavin hydrochloride [2] [%]
B1	54.9	48.7
B2	94.3	65.4
B3	78.3	58.8
B4	69.6	51.9
B5	71.5	43.0
B6	93.2	63.4
B7	91.2	63.7
B8	56.1	33.3
